Test results: patent US20250043302A1, “MUTATED HYDROXYPHENYLPYRUVATE DIOXYGENASE POLYPEPTIDE, AND CODING GENE AND USE THEREOF” (BEIJING DABEINONG BIOTECHNOLOGY CO., LTD., priority 2021, published 2025)
Substitutions are numbered along the chain they refer to. Numbers in names are those of the source.

B1: AtHPPDm-F415W-02: nucleotide sequence encoding Arabidopsis thaliana HPPD with F415W; vector DBN11793 (nucleic acid)
DNA: ATGGGACATCAGAATGCTGCTGTATCAGAAAATCAAAATCATGATGATGGAGCCGCCTCCTCACCAGGGTTTAAGTTGGTTGGGTTCTCCAAGTTTGTACGGAAGAACCCAAAATCCGACAAGTTCAAGGTTAAACGCTTCCACCACATTGAATTCTGGTGCGGCGACGCCACCAATGTTGCTCGGCGTTTTTCATGGGGTTTAGGCATGAGATTCTCAGCAAAGAGTGACCTGAGCACCGGCAACATGGTTCATGCTAGCTATCTCTTAACATCTGGAGATTTGAGGTTTCTTTTCACGGCGCCGTACTCACCATCACTCTCCGCCGGCGAGATCAAACCCACCACGACTGCAAGCATACCTTCATTTGATCATGGTAGTTGCAGATCCTTCTTCTCGTCGCACGGCCTAGGGGTGCGCGCGGTCGCCATCGAAGTTGAAGATGCAGAATCAGCGTTTAGTATCAGCGTGGCAAATGGAGCTATTCCTTCCTCCCCTCCAATTGTCCTCAATGAGGCTGTAACTATTGCCGAGGTGAAGTTGTATGGAGATGTTGTGCTGAGATATGTTTCTTACAAGGCAGAGGACACTGAGAAATCTGAATTTTTGCCTGGTTTTGAAAGGGTCGAGGATGCTTCAAGTTTTCCTCTTGATTACGGCATACGACGGTTGGATCACGCGGTTGGAAATGTACCAGAACTTGGGCCGGCGCTCACTTATGTGGCTGGTTTCACTGGATTCCATCAATTTGCTGAGTTCACAGCTGATGATGTTGGGACTGCTGAAAGTGGGTTGAACTCTGCAGTCCTCGCCTCTAATGATGAAATGGTGCTCCTCCCGATCAACGAGCCTGTGCATGGCACCAAAAGGAAATCACAAATACAGACATATCTTGAGCACAATGAAGGTGCAGGGCTTCAACATCTTGCACTGATGTCTGAAGACATTTTCCGTACGCTGAGAGAGATGAGGAAGAGAAGTAGTATTGGTGGATTTGACTTCATGCCTTCTCCCCCACCAACTTACTACCAGAACTTGAAGAAGAGGGTTGGTGATGTGCTATCTGATGACCAGATCAAGGAGTGTGAAGAATTGGGCATTCTTGTTGATCGGGACGACCAAGGAACATTACTGCAGATATTTACAAAACCACTTGGTGACCGCCCCACTATTTTTATTGAGATCATACAAAGAGTCGGCTGCATGATGAAGGATGAGGAAGGAAAAGCATATCAATCTGGTGGTTGTGGCGGCTTTGGGAAAGGAAACTGGTCTGAGCTGTTCAAATCCATCGAGGAGTATGAGAAGACCTTGGAGGCCAAGCAGCTCGTGGGTTGA
modifications: AtHPPDm-F415W-02 Nucleotide Sequence
notes: vector DBN11793
B2: AtHPPDm-F383Y-02: nucleotide sequence encoding Arabidopsis thaliana HPPD with F383Y; vector DBN11797 (nucleic acid)
DNA: B1 DNA with T1175A, G1271T, G1272C
modifications: AtHPPDm-F383Y-02 Nucleotide Sequence
notes: vector DBN11797
B3: AtHPPDm-F372A-F415W-02: nucleotide sequence encoding Arabidopsis thaliana HPPD with F372A+F415W; vector DBN11794 (nucleic acid)
DNA: B1 DNA with T1141G, T1142C, T1143C
modifications: AtHPPDm-F372A-F415W-02 Nucleotide Sequence
notes: vector DBN11794

Assays:
Assay type in all cases: in vivo
[1] = system: Arabidopsis thaliana T1 plants; assay: Isoxaflutole tolerance of transgenic Arabidopsis thaliana T1 plants (spray, bleached leaf area grade, damage score); settings: for Classification and statistics of the grade of pesticide damage Grade 0 / Classification and statistics of the grade of pesticide damage Grade 1 / Classification and statistics of the grade of pesticide damage Grade 2 / Classification and statistics of the grade of pesticide damage Grade 3: number of plants in grade;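 on Scores: Weighted damage index from 0 to 100 where higher means more damage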
Outline: (§1)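 Read-out: per-plant damage grade 0–3 from proportion of bleached leaf area at 7 DAT (1 <50%, 2 >50%, 3 100%). Plants were T1 transformants, glufosinate-selected, plus wild-type CK, sprayed 18 days post-sowing. Rates: topramezone 25–200, isoxaflutole 35–280, mesotrione 52.5–420 g ai/ha.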

[2] = system: Arabidopsis thaliana T1 plants; assay: Topramezone tolerance of transgenic Arabidopsis thaliana T1 plants (spray, bleached leaf area grade, damage score); settings: Table 13; for Classification and statistics of the grade of pesticide damage Grade 0: number of plants at grade 0; for Classification and statistics of the grade of pesticide damage Grade 1: number of plants at grade 1; for Classification and statistics of the grade of pesticide damage Grade 2: number of plants at grade 2; for Classification and statistics of the grade of pesticide damage Grade 3: number of plants at grade 3; for Scores: pesticide damage score
Outline: as §1

[3] = system: Arabidopsis thaliana T1 plants; assay: Mesotrione tolerance of transgenic Arabidopsis thaliana T1 plants (spray, bleached leaf area grade, damage score); parameters: Scores: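 damage score 0-100 computed as Σ(N×S)/(T×M)×100 over grades 0-3 with higher meaning more damage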; settings: for Classification and statistics of the grade of pesticide damage Grade 0 / Classification and statistics of the grade of pesticide damage Grade 1 / Classification and statistics of the grade of pesticide damage Grade 2 / Classification and statistics of the grade of pesticide damage Grade 3: number of plants in grade
Outline: as §1

Molecule	Resistance evaluation ([1]; isoxaflutole 35 g ai/ha)	Scores ([1]; isoxaflutole 35 g ai/ha)	Classification and statistics of the grade of pesticide damage Grade 0 ([1]; isoxaflutole 35 g ai/ha)	Classification and statistics of the grade of pesticide damage Grade 1 ([1]; isoxaflutole 35 g ai/ha)	Classification and statistics of the grade of pesticide damage Grade 2 ([1]; isoxaflutole 35 g ai/ha)	Classification and statistics of the grade of pesticide damage Grade 3 ([1]; isoxaflutole 35 g ai/ha)	Resistance evaluation ([1]; isoxaflutole 70 g ai/ha)	Scores ([1]; isoxaflutole 70 g ai/ha)	Classification and statistics of the grade of pesticide damage Grade 0 ([1]; isoxaflutole 70 g ai/ha)	Classification and statistics of the grade of pesticide damage Grade 1 ([1]; isoxaflutole 70 g ai/ha)	Classification and statistics of the grade of pesticide damage Grade 2 ([1]; isoxaflutole 70 g ai/ha)	Classification and statistics of the grade of pesticide damage Grade 3 ([1]; isoxaflutole 70 g ai/ha)	Resistance evaluation ([2]; topramezone 25 g ai/ha (1×))	Classification and statistics of the grade of pesticide damage Grade 0 ([2]; topramezone 25 g ai/ha (1×))	Classification and statistics of the grade of pesticide damage Grade 1 ([2]; topramezone 25 g ai/ha (1×))	Classification and statistics of the grade of pesticide damage Grade 2 ([2]; topramezone 25 g ai/ha (1×))	Classification and statistics of the grade of pesticide damage Grade 3 ([2]; topramezone 25 g ai/ha (1×))	Scores ([2]; topramezone 25 g ai/ha (1×))	Resistance evaluation ([2]; topramezone 100 g ai/ha (4×))	Classification and statistics of the grade of pesticide damage Grade 0 ([2]; topramezone 100 g ai/ha (4×))	also measured
B1	Non-resistant	100	0	0	0	16	Non-resistant	100	0	0	0	16	Non-resistant	0	0	0	16	100	Non-resistant	0	Classification and statistics of the grade of pesticide damage Grade 1 ([2]; topramezone 100 g ai/ha (4×)): 0; Classification and statistics of the grade of pesticide damage Grade 2 ([2]; topramezone 100 g ai/ha (4×)): 0; Classification and statistics of the grade of pesticide damage Grade 3 ([2]; topramezone 100 g ai/ha (4×)): 16; Scores ([2]; topramezone 100 g ai/ha (4×)): 100; Resistance evaluation ([3]; mesotrione 52.5 g ai/ha): Non-resistant; Scores ([3]; mesotrione 52.5 g ai/ha): 100; Classification and statistics of the grade of pesticide damage Grade 0 ([3]; mesotrione 52.5 g ai/ha): 0; Classification and statistics of the grade of pesticide damage Grade 1 ([3]; mesotrione 52.5 g ai/ha): 0; Classification and statistics of the grade of pesticide damage Grade 2 ([3]; mesotrione 52.5 g ai/ha): 0; Classification and statistics of the grade of pesticide damage Grade 3 ([3]; mesotrione 52.5 g ai/ha): 16; Resistance evaluation ([3]; mesotrione 105 g ai/ha): Non-resistant; Scores ([3]; mesotrione 105 g ai/ha): 100; Classification and statistics of the grade of pesticide damage Grade 0 ([3]; mesotrione 105 g ai/ha): 0; Classification and statistics of the grade of pesticide damage Grade 1 ([3]; mesotrione 105 g ai/ha): 0; Classification and statistics of the grade of pesticide damage Grade 2 ([3]; mesotrione 105 g ai/ha): 0; Classification and statistics of the grade of pesticide damage Grade 3 ([3]; mesotrione 105 g ai/ha): 16
B2	Non-resistant	100	0	0	0	16	Non-resistant	100	0	0	0	16	Non-resistant	0	0	0	16	100	Non-resistant	0	Classification and statistics of the grade of pesticide damage Grade 1 ([2]; topramezone 100 g ai/ha (4×)): 0; Classification and statistics of the grade of pesticide damage Grade 2 ([2]; topramezone 100 g ai/ha (4×)): 0; Classification and statistics of the grade of pesticide damage Grade 3 ([2]; topramezone 100 g ai/ha (4×)): 16; Scores ([2]; topramezone 100 g ai/ha (4×)): 100; Resistance evaluation ([3]; mesotrione 52.5 g ai/ha): Non-resistant; Scores ([3]; mesotrione 52.5 g ai/ha): 100; Classification and statistics of the grade of pesticide damage Grade 0 ([3]; mesotrione 52.5 g ai/ha): 0; Classification and statistics of the grade of pesticide damage Grade 1 ([3]; mesotrione 52.5 g ai/ha): 0; Classification and statistics of the grade of pesticide damage Grade 2 ([3]; mesotrione 52.5 g ai/ha): 0; Classification and statistics of the grade of pesticide damage Grade 3 ([3]; mesotrione 52.5 g ai/ha): 16; Resistance evaluation ([3]; mesotrione 105 g ai/ha): Non-resistant; Scores ([3]; mesotrione 105 g ai/ha): 100; Classification and statistics of the grade of pesticide damage Grade 0 ([3]; mesotrione 105 g ai/ha): 0; Classification and statistics of the grade of pesticide damage Grade 1 ([3]; mesotrione 105 g ai/ha): 0; Classification and statistics of the grade of pesticide damage Grade 2 ([3]; mesotrione 105 g ai/ha): 0; Classification and statistics of the grade of pesticide damage Grade 3 ([3]; mesotrione 105 g ai/ha): 16
B3	Poorly	54	0	9	4	3	Non-resistant	100	0	0	0	16	Poorly	4	4	7	1	44	Non-resistant	0	Classification and statistics of the grade of pesticide damage Grade 1 ([2]; topramezone 100 g ai/ha (4×)): 0; Classification and statistics of the grade of pesticide damage Grade 2 ([2]; topramezone 100 g ai/ha (4×)): 3; Classification and statistics of the grade of pesticide damage Grade 3 ([2]; topramezone 100 g ai/ha (4×)): 13; Scores ([2]; topramezone 100 g ai/ha (4×)): 94; Resistance evaluation ([3]; mesotrione 52.5 g ai/ha): Poorly resistant; Scores ([3]; mesotrione 52.5 g ai/ha): 65; Classification and statistics of the grade of pesticide damage Grade 0 ([3]; mesotrione 52.5 g ai/ha): 0; Classification and statistics of the grade of pesticide damage Grade 1 ([3]; mesotrione 52.5 g ai/ha): 4; Classification and statistics of the grade of pesticide damage Grade 2 ([3]; mesotrione 52.5 g ai/ha): 9; Classification and statistics of the grade of pesticide damage Grade 3 ([3]; mesotrione 52.5 g ai/ha): 3; Resistance evaluation ([3]; mesotrione 105 g ai/ha): Non-resistant; Scores ([3]; mesotrione 105 g ai/ha): 100; Classification and statistics of the grade of pesticide damage Grade 0 ([3]; mesotrione 105 g ai/ha): 0; Classification and statistics of the grade of pesticide damage Grade 1 ([3]; mesotrione 105 g ai/ha): 0; Classification and statistics of the grade of pesticide damage Grade 2 ([3]; mesotrione 105 g ai/ha): 0; Classification and statistics of the grade of pesticide damage Grade 3 ([3]; mesotrione 105 g ai/ha): 16
